Data from patent publication US20210069342A1 (LEGOCHEM BIOSCIENCES, published 2021).

What was measured:
[1] = target: T1, human ROR1 expressed on the cell surface (human, UniProt Q01973 30-937); experiment: flow cytometry on H460 cells (lung cancer), C2E3 IgG, FITC anti-human Fc detection
T1 construct: whole, on cells; also called cell surface-expressed ROR1 antigen; ROR1 on JeKo-1, Mino, CHO-human ROR1, MC38-human ROR1 and other cancer cell lines
Description: (§1) FACS analysis (FACSCalibur, BD Biosciences) was used to analyze the binding of the anti-ROR1 antibody of the present invention to ROR1 in the above cell lines.
(§2) Specifically, the respective cell lines were dissociated and washed in PBS, then the numbers of cells were counted and adjusted to 2×10⁵ cells/200 PBS. Then, they were treated with 10 /mL of the antibody of clone name C2E3 of the ROR1 monoclonal antibodies prepared in Embodiment 3, and reacted for 1 hour at 4° C. After the reaction, the cells were washed in PBS, then FITC-marked constant region (Fc) specific antibody (Goat anti-human IgG FITC conjugate, Fc specific, Sigma, F9512, concentration 20 mg/ml) was suspended in 2 /1×10⁵ cells/200 PBS and reacted for 1 hour at 4° C. After reacting, the cells were washed with PBS and analyzed with the FACSCalibur equipment. The negative control was only treated with FITC-marked constant region (Fc) specific antibody. To compare the degree of ROR1 expression among the respective cancer cell lines, the quotient of dividing the shifted readings for the experimental group treated with the ROR1 monoclonal antibody (C2E3) of the present invention by the shifted readings for the control group (MFI Ratio: MFI of anti-ROR1/MFI or 2nd Ab) is indicated.

[2] = target: T1, human ROR1 expressed on the cell surface; experiment: flow cytometry on Jurkat cells (T cell leukemia), C2E3 IgG, FITC anti-human Fc detection
Description: as §1, §2

[3] = target: T1, human ROR1 expressed on the cell surface; experiment: flow cytometry on HCC70 cells (breast cancer), C2E3 IgG, FITC anti-human Fc detection
Description: as §1, §2

[4] = target: T1, human ROR1 expressed on the cell surface; experiment: flow cytometry on BT20 cells (breast cancer), C2E3 IgG, FITC anti-human Fc detection
Description: as §1, §2

[5] = target: T1, human ROR1 expressed on the cell surface; experiment: flow cytometry on Mino cells (MCL), C2E3 IgG, FITC anti-human Fc detection
Description: as §1, §2

[6] = target: T1, human ROR1 expressed on the cell surface; experiment: flow cytometry on DLD-1 cells (colon cancer), C2E3 IgG, FITC anti-human Fc detection
Description: as §1, §2

[7] = target: T2, human ROR2 over-expressed on CHO cells (CHO-human ROR2) (human, UniProt Q01974 34-943); experiment: flow cytometry on CHO-S cells transiently over-expressing human ROR2, FITC anti-human Fc detection, MFI ratio to 2nd Ab alone
T2 construct: whole, on cells; Negative control; also called family protein human ROR2
Source text: For this experiment, using cell lines (FIG. 5 and FIG. 7, respectively) transiently (CHO-human ROR1, CHO-human ROR2, CHO-mouse ROR1) or stably (MC38-human ROR1) transfected with ROR1 gene to achieve artificial over-expression of ROR1 protein, an ROR1-expressing cell line (JeKo-1, Mino) (FIG. 6), a non ROR1-expressing cell line (MCF7) (FIG. 6) and a FACSCalibur (BD Biosciences) device was used to measure the degree to which anti-ROR1 antibody and ROR1 were bound, as follows. […] JeKo-1, Mino, CHO-human ROR1, CHO-mouse ROR1 and MC38-human ROR1 are all cell lines which express human ROR1 or mouse ROR1.
Specifically, after dissociating each cell line and washing in PBS, the number of cells was counted and adjusted to 2×10⁵ cells/200 PBS. Then the respective ROR1 monoclonal antibodies prepared in Embodiment 3 were diluted 5 times from 10 /mL or 10 /mL, then reacted for 1 hour at 4° C. After the reaction, the cells were washed in PBS, then FITC-marked constant region (Fc) specific antibody (Goat anti-human IgG FITC conjugate, Fc specific, Sigma, F9512, concentration 20 mg/ml) was suspended in 2 /1×10⁵ cells/200 PBS and reacted for 1 hour at 4° C. As for identification of the degree of expression of the transiently over-expressed human ROR1, human ROR2 and mouse ROR1, a commercially available FACS analysis antibody (anti-ROR1: R&D Systems, FAB 2000G, anti-ROR2: R&D, FAB20641P) was used. After reacting the cells were washed in PBS and analyzed using a FACSCalibur device. The negative control (2nd Ab) was only treated with FITC-marked constant region (Fc) specific antibody. The shifted readings for the respective experimental groups treated with ROR1 monoclonal antibody were compared against the shifted reading for the control group (MFI Ratio: MFI of anti-ROR1/MFI of 2nd Ab).

[8] = target: T1, human ROR1 expressed on the cell surface; experiment: flow cytometry on H1437 cells (lung cancer), C2E3 IgG, FITC anti-human Fc detection
Description: as §1, §2

[9] = target: T1, human ROR1 expressed on the cell surface; experiment: flow cytometry on HCC1187 cells (breast cancer), C2E3 IgG, FITC anti-human Fc detection
Description: as §1, §2

[10] = target: T1, human ROR1 expressed on the cell surface; experiment: flow cytometry on SNU-1750 cells (gastric cancer), C2E3 IgG, FITC anti-human Fc detection
Description: as §1, §2

[11] = target: T1, human ROR1 expressed on the cell surface; experiment: flow cytometry on MCF7 cells (breast cancer; the text calls MCF7 a cell line which does not express ROR1), C2E3 IgG, FITC anti-human Fc detection
Description: as §1, §2

[12] = target: T1, human ROR1 expressed on the cell surface; experiment: flow cytometry on MDA-MB-231 cells (breast cancer), C2E3 IgG, FITC anti-human Fc detection
Description: as §1, §2

[13] = target: T1, human ROR1 expressed on the cell surface; experiment: flow cytometry on A549 cells (lung cancer), C2E3 IgG, FITC anti-human Fc detection
Description: as §1, §2

[14] = target: T1, human ROR1 expressed on the cell surface; experiment: flow cytometry on HCC1937 cells (breast cancer), C2E3 IgG, FITC anti-human Fc detection
Description: as §1, §2

T1 sequence (Q01973 30-937): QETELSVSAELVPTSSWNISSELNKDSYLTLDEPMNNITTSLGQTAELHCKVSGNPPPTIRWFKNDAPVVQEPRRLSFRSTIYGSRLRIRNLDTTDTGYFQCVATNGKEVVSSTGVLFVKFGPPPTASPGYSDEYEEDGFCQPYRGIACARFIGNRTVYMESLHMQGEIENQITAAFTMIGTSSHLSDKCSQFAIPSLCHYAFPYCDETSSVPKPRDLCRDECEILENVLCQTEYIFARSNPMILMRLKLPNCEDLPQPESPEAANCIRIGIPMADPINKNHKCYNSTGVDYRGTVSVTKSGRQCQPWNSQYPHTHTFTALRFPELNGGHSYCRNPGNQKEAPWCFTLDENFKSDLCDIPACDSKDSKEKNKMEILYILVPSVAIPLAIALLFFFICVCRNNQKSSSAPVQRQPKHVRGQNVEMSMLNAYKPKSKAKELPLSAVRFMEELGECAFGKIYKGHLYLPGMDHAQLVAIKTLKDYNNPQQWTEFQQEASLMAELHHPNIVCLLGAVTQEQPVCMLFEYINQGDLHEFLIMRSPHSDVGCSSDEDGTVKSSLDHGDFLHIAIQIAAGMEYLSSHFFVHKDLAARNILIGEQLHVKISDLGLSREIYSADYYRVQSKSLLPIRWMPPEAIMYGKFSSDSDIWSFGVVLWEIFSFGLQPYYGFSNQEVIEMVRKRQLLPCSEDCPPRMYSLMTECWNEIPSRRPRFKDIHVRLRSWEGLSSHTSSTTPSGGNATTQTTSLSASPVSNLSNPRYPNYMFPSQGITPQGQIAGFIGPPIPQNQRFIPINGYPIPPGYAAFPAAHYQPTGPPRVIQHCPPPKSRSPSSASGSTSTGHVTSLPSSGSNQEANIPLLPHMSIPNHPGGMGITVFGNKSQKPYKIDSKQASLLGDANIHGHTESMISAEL
T2 sequence (Q01974 34-943): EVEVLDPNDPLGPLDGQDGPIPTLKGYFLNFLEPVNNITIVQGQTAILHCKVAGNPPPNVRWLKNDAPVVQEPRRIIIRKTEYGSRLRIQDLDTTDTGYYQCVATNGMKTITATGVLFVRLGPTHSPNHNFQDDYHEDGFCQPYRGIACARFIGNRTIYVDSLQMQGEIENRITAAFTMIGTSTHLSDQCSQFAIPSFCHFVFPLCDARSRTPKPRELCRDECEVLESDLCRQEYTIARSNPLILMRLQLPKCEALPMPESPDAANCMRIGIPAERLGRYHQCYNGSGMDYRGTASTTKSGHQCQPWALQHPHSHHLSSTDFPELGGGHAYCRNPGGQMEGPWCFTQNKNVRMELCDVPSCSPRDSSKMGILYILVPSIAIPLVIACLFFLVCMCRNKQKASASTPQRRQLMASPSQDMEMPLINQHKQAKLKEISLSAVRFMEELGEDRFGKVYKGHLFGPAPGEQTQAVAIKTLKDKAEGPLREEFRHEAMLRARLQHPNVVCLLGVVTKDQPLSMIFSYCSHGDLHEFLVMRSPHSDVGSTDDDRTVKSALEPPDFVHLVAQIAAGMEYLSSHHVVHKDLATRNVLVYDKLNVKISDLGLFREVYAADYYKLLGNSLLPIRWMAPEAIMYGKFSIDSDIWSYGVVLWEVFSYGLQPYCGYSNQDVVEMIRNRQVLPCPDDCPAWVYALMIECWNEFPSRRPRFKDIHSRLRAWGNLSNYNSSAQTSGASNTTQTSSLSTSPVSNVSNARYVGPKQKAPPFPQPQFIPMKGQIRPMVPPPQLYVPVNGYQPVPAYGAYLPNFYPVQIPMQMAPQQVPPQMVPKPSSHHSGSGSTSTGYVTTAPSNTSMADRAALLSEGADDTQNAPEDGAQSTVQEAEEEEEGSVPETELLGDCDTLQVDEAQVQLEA

B1: anti-ROR1 IgG antibody C2E3 (antibody, V domains shown)
VH: EVQLLESGGGLVQPGGSLRLSCAASGFTFSNYAMSWVRQAPGKGLEWVSSISHNSGSTYYADSVKGRFTISRDNSKNTLYLQMNSLRAEDTAVYYCAKFISARKSLGRSYSNGMDVWGQGTLVTVSS
VL: QSVLTQPPSASGTPGQRVTISCTGSSSNIGSNDVTWYQQLPGTAPKLLIYADSKRPSGVPDRFSGSKSGTSASLAISGLRSEDEADYYCGTWDYSLSGYVFGGGTKLTVLG
notes: Full IgG form (human IgG1 constant region, lambda light chain), expressed in CHO-S cells
- Mean Fold Ratio (MFI of anti-ROR1 / MFI of 2nd Ab) [1]: 10.9
- Mean Fold Ratio (MFI of anti-ROR1 / MFI of 2nd Ab) [2]: 1.7
- Mean Fold Ratio (MFI of anti-ROR1 / MFI of 2nd Ab) [3]: 3.8
- Mean Fold Ratio (MFI of anti-ROR1 / MFI of 2nd Ab) [4]: 3
- Mean Fold Ratio (MFI of anti-ROR1 / MFI of 2nd Ab) [5]: 7.2
- Mean Fold Ratio (MFI of anti-ROR1 / MFI of 2nd Ab) [6]: 17.6
- binding result [7]: no binding
- Mean Fold Ratio (MFI of anti-ROR1 / MFI of 2nd Ab) [8]: 4.1
- Mean Fold Ratio (MFI of anti-ROR1 / MFI of 2nd Ab) [9]: 9.3
- Mean Fold Ratio (MFI of anti-ROR1 / MFI of 2nd Ab) [10]: 3.9
- Mean Fold Ratio (MFI of anti-ROR1 / MFI of 2nd Ab) [11]: 1.1
- Mean Fold Ratio (MFI of anti-ROR1 / MFI of 2nd Ab) [12]: 8.8
- Mean Fold Ratio (MFI of anti-ROR1 / MFI of 2nd Ab) [13]: 6
- Mean Fold Ratio (MFI of anti-ROR1 / MFI of 2nd Ab) [14]: 2.7
